Source: PMC9353652 (Journal of the American Chemical Society, 2021)

Columns and labels:
[1] = molecular target: ATP-grasp ligase CdnC (Chryseobacterium gregarium DSM 19109); assay: SEC

Row | stoichiometry N [1] | inhibition of chymotrypsin activity (protease inhibition assay) (chymotrypsin) [nM] | Substance
1 | 2 | – | ATP-grasp ligase CdnC (enzyme)
2 | – | 70 | chryseoviridin (fully cyclized, full length core region of CdnA3) (peptide)
